Substitutions are numbered along the chain they refer to. Numbers in names are those of the source.
B1: sperm lysin from red abalone (Haliotis rufescens), wild type (natural protein)
chain: RSWHYVEPKFLNKAFEVALKVQIIAGFDRGLVKWLRVHGRTLSTVQKKALYFVNRRYMQTHWANYMLWINKKIDALGRTPVVGDYTRLGAEIGRRIDMAYFYDFLKDKNMIPKYLPYMEEINRMRPADVPVKYMGK
B2: F104A lysin (monomeric mutant of red abalone sperm lysin) (natural protein)
chain: B1 chain with F104A

Legend:
NMR relaxation = target: the molecule itself; assay: NMR relaxation
[1] = target: the molecule itself; assay: cell-based or functional assay

Row | Protein | binding result (NMR relaxation) | in vitro VE dissolution (turbidity at 640 nm), F104A lysin against WT lysin [1]
1 | B1 | binds | –
2 | B2 | – | ≥ 4 fold
